Results as given in the supplement of paper PMC9233669.
This sample holds only a part of the variants without activity.

Experiments:
biotinyl-Phe-oxazolone = assay: self-aminoacylation, catalytic enhancement (BFO) (fold over background); higher = more active; k-Seq, kA / k0A0; sequences stand for … in GGGAAUGGAUCCACAUCUACGAAUUC…UUCACUGCAGACUUGACGAAGCUG
How it was run: (§1)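 Catalytic enhancement equals the median kA over the uncatalyzed rate, the latter read from the low-activity peak of a bimodal Gaussian fit. Values of kA came from fitting each sequence's fraction reacted to a pseudo-first-order model, with 1000 bootstraps. Reacted RNA was captured with streptavidin and quantified by triplicate qPCR and Illumina sequencing after 90 minutes at room temperature with 2–1250 μM biotinyl-aminoacyl-oxazolone and 0.43 μM mutagenized RNA pools bearing a 21-nt variable region.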

biotinyl-Trp-oxazolone = assay: self-aminoacylation, catalytic enhancement (BWO) (fold over background); higher = more active; k-Seq, kA / k0A0; sequences stand for … in GGGAAUGGAUCCACAUCUACGAAUUC…UUCACUGCAGACUUGACGAAGCUG
How it was run: as §1

AAGUUUACUAAUAGUCGUAAG [Fam3.1 aminoacylation ribozyme variant]
self-aminoacylation (biotinyl-Phe-oxazolone): 2.3

AAGUAUGCUAAUAGUCGCCAG [Fam3.1 aminoacylation ribozyme variant]
self-aminoacylation (biotinyl-Trp-oxazolone): 3.29

AAGUAUGCUAAGAGUCGCAAG [Fam3.1 aminoacylation ribozyme variant]
self-aminoacylation (biotinyl-Phe-oxazolone): 4.08

AAGUUUGCUAAAAGUCGCAUG [Fam3.1 aminoacylation ribozyme variant]
self-aminoacylation (biotinyl-Phe-oxazolone): 2.71

AUGUUUGCUAAUAGUCGGAAG [Fam3.1 aminoacylation ribozyme variant]
self-aminoacylation (biotinyl-Phe-oxazolone): 5.76

AUUCUCCUAGGUCAUCGGGUC [Fam2.2 aminoacylation ribozyme variant]
self-aminoacylation (biotinyl-Phe-oxazolone): 4.09

CUGCUUCAAACAAUCCGUCUG [Fam1A.1 aminoacylation ribozyme variant]
self-aminoacylation (biotinyl-Phe-oxazolone): 2.71

AUUACGCUGCUCAUCGAGUGA [Fam2.1 aminoacylation ribozyme variant]
self-aminoacylation (biotinyl-Trp-oxazolone): 2.69

AUUCACUUAGGUCGUCGGGUG [Fam2.2 aminoacylation ribozyme variant]
self-aminoacylation (biotinyl-Phe-oxazolone): 4.92

AGGUUUGUUAAUAGUCGCAAG [Fam3.1 aminoacylation ribozyme variant]
self-aminoacylation (biotinyl-Phe-oxazolone): 3.87

CCACGCAUCAAGCAAUCGGUC [Fam1B.1 aminoacylation ribozyme variant]
self-aminoacylation (biotinyl-Phe-oxazolone): 3.83

CGACACUUCAGGCAAUCGGUC [Fam1B.1 aminoacylation ribozyme variant]
self-aminoacylation (biotinyl-Phe-oxazolone): 2.04

ACGUUAGCUAAUAGUCGCAAG [Fam3.1 aminoacylation ribozyme variant]
self-aminoacylation (biotinyl-Phe-oxazolone): 3.08

CUCCUUCAAACAGUCGGUCUG [Fam1A.1 aminoacylation ribozyme variant]
self-aminoacylation (biotinyl-Phe-oxazolone): 3.98

AUUCACCUAGGUGAGCGGGUG [Fam2.2 aminoacylation ribozyme variant]
self-aminoacylation (biotinyl-Phe-oxazolone): 7.25

AUUACCCUGGUGAUCGUGUGA [Fam2.1 aminoacylation ribozyme variant]
self-aminoacylation (biotinyl-Phe-oxazolone): 5.71

CAGUUUGCUCAUAGUCGCAAG [Fam3.1 aminoacylation ribozyme variant]
self-aminoacylation (biotinyl-Phe-oxazolone): 2.06

AAGUUUGCUCAUAGUCGCAGG [Fam3.1 aminoacylation ribozyme variant]
self-aminoacylation (biotinyl-Phe-oxazolone): 2.92

CUAGUUCAAACAAUCGGUAUG [Fam1A.1 aminoacylation ribozyme variant]
self-aminoacylation (biotinyl-Phe-oxazolone): 3.27

AUUCACCUAGGUCGUCUGGUG [Fam2.2 aminoacylation ribozyme variant]
self-aminoacylation (biotinyl-Phe-oxazolone): 5.84

CAGUUUGCUAAUAGUCGCUAG [Fam3.1 aminoacylation ribozyme variant]
self-aminoacylation (biotinyl-Phe-oxazolone): 2.2

CUACUGCAAUCAAUCGGUCUG [Fam1A.1 aminoacylation ribozyme variant]
self-aminoacylation (biotinyl-Phe-oxazolone): 2.9

AAGUUUGCUCACAGUCGCAAG [Fam3.1 aminoacylation ribozyme variant]
self-aminoacylation (biotinyl-Phe-oxazolone): 2.76

AAGUUUGCUAAAAGUCGCCAG [Fam3.1 aminoacylation ribozyme variant]
self-aminoacylation (biotinyl-Trp-oxazolone): 2.25

CAACUUUAAACAAUCGGUCUG [Fam1A.1 aminoacylation ribozyme variant]
self-aminoacylation (biotinyl-Phe-oxazolone): 2.09

AAGUUUCCUAAUAGUCUCAAG [Fam3.1 aminoacylation ribozyme variant]
self-aminoacylation (biotinyl-Phe-oxazolone): 2.15

CCACACUCCAGGCAAUCGGUC [Fam1B.1 aminoacylation ribozyme variant]
self-aminoacylation (biotinyl-Trp-oxazolone): 2.04

AAGUUUCCAAAUAGUCGCAAG [Fam3.1 aminoacylation ribozyme variant]
self-aminoacylation (biotinyl-Phe-oxazolone): 2.83

CAACUUCAAACAAUCGAUCUG [Fam1A.1 aminoacylation ribozyme variant]
self-aminoacylation (biotinyl-Phe-oxazolone): 3.33

AAUUUUGCGAAUAGUCGCAAG [Fam3.1 aminoacylation ribozyme variant]
self-aminoacylation (biotinyl-Trp-oxazolone): 2

AAGGUUGCUAAUAGUCCCAAG [Fam3.1 aminoacylation ribozyme variant]
self-aminoacylation (biotinyl-Phe-oxazolone): 2.86

AAGUUUGGUAAAAGUCGCAAG [Fam3.1 aminoacylation ribozyme variant]
self-aminoacylation (biotinyl-Phe-oxazolone): 2.32

AAGUUUGCGCAUAGUCGCAAG [Fam3.1 aminoacylation ribozyme variant]
self-aminoacylation (biotinyl-Phe-oxazolone): 2.97

AAGAUGGCUAAUAGUCGCAAG [Fam3.1 aminoacylation ribozyme variant]
self-aminoacylation (biotinyl-Phe-oxazolone): 2.14

ACACACUUCAAGCAAUCGAUC [Fam1B.1 aminoacylation ribozyme variant]
self-aminoacylation (biotinyl-Phe-oxazolone): 2.02

AGUCACCUAGGUCAUCGUGUG [Fam2.2 aminoacylation ribozyme variant]
self-aminoacylation (biotinyl-Phe-oxazolone): 7.83

CUACUUCAAACACUCGGUCGG [Fam1A.1 aminoacylation ribozyme variant]
self-aminoacylation (biotinyl-Phe-oxazolone): 5.02

CUACAUCAAACAAUGGGUCUG [Fam1A.1 aminoacylation ribozyme variant]
self-aminoacylation (biotinyl-Phe-oxazolone): 2.95

AUUACCCUGGUCAUCGUGUGU [Fam2.1 aminoacylation ribozyme variant]
self-aminoacylation (biotinyl-Phe-oxazolone): 2.45

AAGUUUUCUAAUAGCCGCAAG [Fam3.1 aminoacylation ribozyme variant]
self-aminoacylation (biotinyl-Phe-oxazolone): 2.19

CUACUGCAAACAGUCGGUCUG [Fam1A.1 aminoacylation ribozyme variant]
self-aminoacylation (biotinyl-Phe-oxazolone): 2.04

CCACAUUUCAAGCAAUCGGUC [Fam1B.1 aminoacylation ribozyme variant]
self-aminoacylation (biotinyl-Phe-oxazolone): 3.26

AAGUUUGCUAAUGGCCGCAAG [Fam3.1 aminoacylation ribozyme variant]
self-aminoacylation (biotinyl-Phe-oxazolone): 4.21

AAGUUCGCUAGUAGUCGCAAG [Fam3.1 aminoacylation ribozyme variant]
self-aminoacylation (biotinyl-Phe-oxazolone): 4.51

AAGUCUCCUAAUAGUCGCAAG [Fam3.1 aminoacylation ribozyme variant]
self-aminoacylation (biotinyl-Phe-oxazolone): 3.11

CUACUUCCAACGAUCGGUCUG [Fam1A.1 aminoacylation ribozyme variant]
self-aminoacylation (biotinyl-Phe-oxazolone): 3.05

AAGUUUAAUAAUAGUCGCAAG [Fam3.1 aminoacylation ribozyme variant]
self-aminoacylation (biotinyl-Phe-oxazolone): 2.22

AAGUUUGCUAAUACUCGCGAG [Fam3.1 aminoacylation ribozyme variant]
self-aminoacylation (biotinyl-Phe-oxazolone): 5.73

AUUUCCCUGGUCAUCGAGUUA [Fam2.1 aminoacylation ribozyme variant]
self-aminoacylation (biotinyl-Phe-oxazolone): 2.12

AAGCUUACUAAUAGUCGCAAG [Fam3.1 aminoacylation ribozyme variant]
self-aminoacylation (biotinyl-Phe-oxazolone): 3.02

GUACUGCAAACAAUCGGUCUG [Fam1A.1 aminoacylation ribozyme variant]
self-aminoacylation (biotinyl-Phe-oxazolone): 3.7

AAUUUUGCUAAUGGUCGCAAG [Fam3.1 aminoacylation ribozyme variant]
self-aminoacylation (biotinyl-Phe-oxazolone): 3.61

AAGUUAGCGAAUAGUCGCAAG [Fam3.1 aminoacylation ribozyme variant]
self-aminoacylation (biotinyl-Phe-oxazolone): 2.1

AAGUCUGCUGAUAGUCGCAAG [Fam3.1 aminoacylation ribozyme variant]
self-aminoacylation (biotinyl-Phe-oxazolone): 3.91

CCACAUUUCAAGAAAUCGGUC [Fam1B.1 aminoacylation ribozyme variant]
self-aminoacylation (biotinyl-Phe-oxazolone): 2.09

ACUCACCUAGGUCAUCGUGUG [Fam2.2 aminoacylation ribozyme variant]
self-aminoacylation (biotinyl-Phe-oxazolone): 4.06

CUACUUCAAAAACUCGGUCUG [Fam1A.1 aminoacylation ribozyme variant]
self-aminoacylation (biotinyl-Phe-oxazolone): 2.19

GCACACUUCAAGCAAACGGUC [Fam1B.1 aminoacylation ribozyme variant]
self-aminoacylation (biotinyl-Phe-oxazolone): 2.05

AAGCUUGCUAAUAGUCCCAAG [Fam3.1 aminoacylation ribozyme variant]
self-aminoacylation (biotinyl-Phe-oxazolone): 3.57

CCACACUUCAGGCAAUCCGUC [Fam1B.1 aminoacylation ribozyme variant]
self-aminoacylation (biotinyl-Phe-oxazolone): 2.08

AUUACCCUGGUCGUCGUGUGA [Fam2.1 aminoacylation ribozyme variant]
self-aminoacylation (biotinyl-Phe-oxazolone): 9.58

AUUCACCUAGGUCAUCCGGUC [Fam2.2 aminoacylation ribozyme variant]
self-aminoacylation (biotinyl-Phe-oxazolone): 4.67

GUACUUCGAACAAUCGGUCUG [Fam1A.1 aminoacylation ribozyme variant]
self-aminoacylation (biotinyl-Phe-oxazolone): 5.74

AAGUUUACUAAUAGUCGCACG [Fam3.1 aminoacylation ribozyme variant]
self-aminoacylation (biotinyl-Phe-oxazolone): 2.22

AAGCUUGCUAAUAAUCGCAAG [Fam3.1 aminoacylation ribozyme variant]
self-aminoacylation (biotinyl-Phe-oxazolone): 2.2

GAGUUUGCUAAUAGUAGCAAG [Fam3.1 aminoacylation ribozyme variant]
self-aminoacylation (biotinyl-Phe-oxazolone): 3.32

CAACACUUCAAGCAAUCGGAC [Fam1B.1 aminoacylation ribozyme variant]
self-aminoacylation (biotinyl-Phe-oxazolone): 2.37

AUUACCCUGGCCAUCGUGUGA [Fam2.1 aminoacylation ribozyme variant]
self-aminoacylation (biotinyl-Phe-oxazolone): 6.7

AAGUUUGCUAACAGUCGCAGG [Fam3.1 aminoacylation ribozyme variant]
self-aminoacylation (biotinyl-Phe-oxazolone): 3.44

AAGUAUGCUAAUAGUCGCUAG [Fam3.1 aminoacylation ribozyme variant]
self-aminoacylation (biotinyl-Phe-oxazolone): 2.24

AAGUUAGCUAAUUGUCGCAAG [Fam3.1 aminoacylation ribozyme variant]
self-aminoacylation (biotinyl-Phe-oxazolone): 2.54

AAGGUUGCUACUAGUCGCAAG [Fam3.1 aminoacylation ribozyme variant]
self-aminoacylation (biotinyl-Phe-oxazolone): 4

AUUACCCUGGUCAUCGAGAGG [Fam2.1 aminoacylation ribozyme variant]
self-aminoacylation (biotinyl-Phe-oxazolone): 2.47

CUACUUCAGACAAUCGGGCUG [Fam1A.1 aminoacylation ribozyme variant]
self-aminoacylation (biotinyl-Phe-oxazolone): 3.52

AUUCACCUAGGUCAUCCGGUU [Fam2.2 aminoacylation ribozyme variant]
self-aminoacylation (biotinyl-Phe-oxazolone): 9.74

CCACACUUCAAACAAUCGAUC [Fam1B.1 aminoacylation ribozyme variant]
self-aminoacylation (biotinyl-Phe-oxazolone): 2.59

AUUCACCUAGGUCGUCGUGUG [Fam2.2 aminoacylation ribozyme variant]
self-aminoacylation (biotinyl-Phe-oxazolone): 3.62
